The results in this text go back to US20230312735A1 (IMMUNOGEN, published 2023).

This assay has as its target T1, human CD123 (interleukin-3 receptor alpha subunit) (human, UniProt P26951 19-378).
T1 construct: Native CD123 on patients' cells; also called IL-3Rα; Interleukine-3 Receptor alpha
The assay can be described thus: average CD123 receptor saturation on patients' cells after intravenous IMGN632, Schedule A, Cohorts 1-6 (method not described).

T1 sequence (P26951 19-378 limits assumed): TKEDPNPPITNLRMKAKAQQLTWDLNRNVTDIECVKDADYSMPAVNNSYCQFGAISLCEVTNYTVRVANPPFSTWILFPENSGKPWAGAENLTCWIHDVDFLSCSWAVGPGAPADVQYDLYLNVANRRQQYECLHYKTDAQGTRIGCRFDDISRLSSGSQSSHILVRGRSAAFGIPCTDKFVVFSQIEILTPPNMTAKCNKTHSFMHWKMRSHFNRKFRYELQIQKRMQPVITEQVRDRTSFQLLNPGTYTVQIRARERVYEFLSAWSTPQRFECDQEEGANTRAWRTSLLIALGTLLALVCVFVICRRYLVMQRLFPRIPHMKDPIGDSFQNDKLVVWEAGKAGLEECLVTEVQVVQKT

B1: IMGN632 (immunoconjugate of the anti-CD123 huCD123-6Gv4.7 antibody linked to DGN549-C) (antibody, V domains shown)
VH: QVQLVQSGAEVKKPGASVKVSCKASGYIFTSSIMHWVRQAPGQGLEWIGYIKPYNDGTKYNEKFKGRATLTSDRSTSTAYMELSSLRSEDTAVYYCAREGGNDYYDTMDYWGQGTLVTVSS
VL: DIQMTQSPSSLSASVGDRVTITCRASQDINSYLSWFQQKPGKAPKTLIYRVNRLVDGVPSRFSGSGSGNDYTLTISSLQPEDFATYYCLQYDAFPYTFGQGTKVEIKR
modifications: DGN549-C cytotoxic agent (peptide linker) covalently linked through a cysteine residue (huCD123-6Gv7-C442 heavy chain); average of 1.5 to 2.1 DGN549-C per antibody, mostly the sulfonated form
notes: also called anti-CD123 immunoconjugate; G4723A-DGN549-C
Consider B1, for which the binding result is listed as “binds”.
